In article PMC2887783 (2010):

B1: AIP4 PRR/WWI-IV 155-486 (protein)
chain: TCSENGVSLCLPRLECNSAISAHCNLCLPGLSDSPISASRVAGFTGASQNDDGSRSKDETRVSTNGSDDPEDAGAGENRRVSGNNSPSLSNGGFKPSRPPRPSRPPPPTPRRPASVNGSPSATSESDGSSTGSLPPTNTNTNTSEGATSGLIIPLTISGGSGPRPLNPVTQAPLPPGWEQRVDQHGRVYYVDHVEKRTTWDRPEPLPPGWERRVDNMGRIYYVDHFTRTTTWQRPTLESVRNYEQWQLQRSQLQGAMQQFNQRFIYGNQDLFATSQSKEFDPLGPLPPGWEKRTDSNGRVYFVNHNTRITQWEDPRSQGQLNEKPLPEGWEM

Experiments:
AIP4 PRR/WWI-IV 155-486 [1] = target: B1; test: competition ELISA
AIP4 PRR/WWI-IV 155-486 [2] = target: B1; test: ELISA
AIP4 PRR/WWI-IV 155-486 [3] = target: B1; test: competition ELISA; remark: listed apart in the source
AIP4 HECT domain HECT = AIP4 HECT domain HECT (Homo sapiens, UniProt Q96J02); test: ELISA
AIP4 HECT domain HECT, sequence (Q96J02 566-903): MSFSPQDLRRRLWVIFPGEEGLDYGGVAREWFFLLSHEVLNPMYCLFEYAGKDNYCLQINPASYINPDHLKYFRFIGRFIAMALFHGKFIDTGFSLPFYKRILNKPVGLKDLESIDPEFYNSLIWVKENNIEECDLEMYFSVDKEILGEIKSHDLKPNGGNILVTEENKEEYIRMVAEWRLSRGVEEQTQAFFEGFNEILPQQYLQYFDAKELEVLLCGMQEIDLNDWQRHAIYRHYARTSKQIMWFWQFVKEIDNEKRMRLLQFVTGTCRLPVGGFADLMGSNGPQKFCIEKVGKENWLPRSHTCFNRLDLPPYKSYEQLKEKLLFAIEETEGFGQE

AIP4 PRR/WWI-IV 155-486, sequence (Q96J02 155-486): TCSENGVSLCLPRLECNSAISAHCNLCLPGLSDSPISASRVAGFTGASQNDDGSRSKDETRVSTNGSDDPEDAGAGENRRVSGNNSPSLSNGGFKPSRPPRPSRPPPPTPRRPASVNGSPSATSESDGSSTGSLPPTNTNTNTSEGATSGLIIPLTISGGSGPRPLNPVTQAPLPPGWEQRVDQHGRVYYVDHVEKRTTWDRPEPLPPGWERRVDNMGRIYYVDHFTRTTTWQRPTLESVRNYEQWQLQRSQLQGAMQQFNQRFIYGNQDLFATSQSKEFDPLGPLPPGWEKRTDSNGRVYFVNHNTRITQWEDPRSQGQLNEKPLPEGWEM

| Binder | Ki (AIP4 PRR/WWI-IV 155-486 [1]) | Kd (AIP4 PRR/WWI-IV 155-486 [2]) | IC50 (AIP4 PRR/WWI-IV 155-486 [3]) | Kd (AIP4 HECT domain HECT) |
| --- | --- | --- | --- | --- |
| spartin 155-367 (protein) APASLSLPSQSCPAEAPPAYTPQAAEGHYTVSYGTDSGEFSSVGEEFYRNHSQPPPLETLGLDADELILIPNGVQIFFVNPAGEVSAPSYPGYLRIVRFLDNSLDTVLNRPPGFLQVCDWLYPLVPDRSPVLKCTAGAYMFPDTMLQAAGCFVGVVLSSELPEDDRELFEDLLRQMSDLRLQANWNRAEEENEFQIPGRTRPSSDQLKEASGT | 0.21 µM | 0.34 µM | 0.56 µM | – |
| B1 | – | – | – | 2 µM |
